The test system of series [1] is HeLa Kyoto. Kind of series: solubility in G1/S (NP-40 vs SDS abundance) (log2 ratio); higher = more soluble. Conditions: cell cycle stage: G1/S.
Series [2] concerns HeLa Kyoto. Kind of series: thermal stability score vs G1/S (z-score of summed log2 fold changes over temperatures); higher = more thermally stable than in G1/S.
The subject of series [3] is HeLa Kyoto. In words: solubility change mitosis vs G1/S (difference of NP-40 vs SDS log2 ratios) (log2 ratio difference); higher = more soluble in mitosis.
Series [4] deals with HeLa Kyoto. Kind of series: melting temperature (median over replicates), in situ; higher = more thermally stable.
[5] abbreviates: cell cycle stage: early G1 (4.5 h after nocodazole release).

These results are taken from the supplement of paper PMC5998384.
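Throughout, for melting temperature (median over replicates), in situ: HeLa Kyoto cells synchronized by double thymidine or nocodazole block, proteins quantified by TMT10plex mass spectrometry, three independent biological replicates.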
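Throughout, for solubility change mitosis vs G1/S (difference of NP-40 vs SDS log2 ratios): synchronized HeLa Kyoto cells (double thymidine block for G1/S, nocodazole release for mitosis), protein amounts in NP-40 versus SDS lysates quantified by mass spectrometry, three biological replicates.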
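Throughout, for solubility in G1/S (NP-40 vs SDS abundance): HeLa Kyoto cells arrested at G1/S by double thymidine block, proteins quantified by TMT10plex mass spectrometry in mild NP-40 versus SDS extracts, three biological replicates.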
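Throughout, for thermal stability score vs G1/S (z-score of summed log2 fold changes over temperatures): synchronized HeLa Kyoto cells, proteins quantified by TMT10plex mass spectrometry, three biological replicates, mitosis taken 0.5 h after nocodazole release, G1/S directly after double thymidine block.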

With “MELVAGCYEQVLFGFAVHPEPEACGDHEQWTLVADFTHHAHTASLSAVAVNSRFVVTGSKDETIHIYDMKKKIEHGALVHHSGTITCLKFYGNRHLISGAEDGLICIWDAKKWECLKSIKAHKGQVTFLSIHPSGKLALSVGTDKTLRTWNLVEGRSAFIKNIKQNAHIVEWSPRGEQYVVIIQNKIDIYQLDTASISGTITNEKRISSVKFLSESVLAVAGDEEVIRFFDCDSLVCLCEFKAHENRVKDMFSFEIPEHHVIVSASSDGFIKMWKLKQDKKVPPSLLCEINTNARLTCLGVWLDKVADMKESLPPAAEPSPVSKEQSKIGKKEPGDTVHKEEKRSKPNTKKRGLTGDSKKATKESGLISTKKRKMVEMLEKKRKKKKIKTMQ [PAK1IP1]”, the “solubility in G1/S (log2)” value in the series with HeLa Kyoto [1] is -1.64. The thermal stability score in the series on HeLa Kyoto [2] (setting [5]) was -1.32; with HeLa Kyoto [2] (cell cycle stage: mitosis), -5.78. Besides, in the series with HeLa Kyoto [3], the “solubility change mitosis (log2)” value turned out to be 0.614. Also, the melting temperature in the series on HeLa Kyoto [4] (cell cycle stage: G1/S) stood at 56.5 °C; in the series with HeLa Kyoto [4] (cell cycle stage: mitosis), 53.8 °C.
On to LAMA1, for which, in the series on HeLa Kyoto [1], the “solubility in G1/S (log2)” value was -0.219. In addition, the results for the thermal stability score in the series with HeLa Kyoto [2] (setting [5]) and with HeLa Kyoto [2] (cell cycle stage: mitosis) were 5.02 and 10, respectively. Moreover, the “solubility change mitosis (log2)” value with HeLa Kyoto [3] came to 0.051. For the same substance, the melting temperature in the series with HeLa Kyoto [4] (cell cycle stage: G1/S) was 51.7 °C; with HeLa Kyoto [4] (cell cycle stage: mitosis) it was 52.9 °C.
Turning to “MASSNTVLMRLVASAYSIAQKAGMIVRRVIAEGDLGIVEKTCATDLQTKADRLAQMSICSSLARKFPKLTIIGEEDLPSEEVDQELIEDSQWEEILKQPCPSQYSAIKEEDLVVWVDPLDGTKEYTEGLLDNVTVLIGIAYEGKAIAGVINQPYYNYEAGPDAVLGRTIWGVLGLGAFGFQLKEVPAGKHIITTTRSHSNKLVTDCVAAMNPDAVLRVGGAGNKIIQLIEGKASAYVFASPGCKKWDTCAPEVILHAVGGKLTDIHGNVLQYHKDVKHMNSAGVLATLRNYDYYASRVPESIKNALVP [BPNT1]”, the “solubility in G1/S (log2)” value in the series with HeLa Kyoto [1] was 0.211. Moreover, the values for the thermal stability score in the series with HeLa Kyoto [2] (setting [5]) and with HeLa Kyoto [2] (cell cycle stage: mitosis) were -0.366 and -1.21, respectively. Besides, the “solubility change mitosis (log2)” value with HeLa Kyoto [3] is -0.0215. The melting temperature in the series on HeLa Kyoto [4] (cell cycle stage: G1/S) stood at 57.5 °C; in the series on HeLa Kyoto [4] (cell cycle stage: mitosis), 57.9 °C.
With “MAASAKRKQEEKHLKMLRDMTGLPHNRKCFDCDQRGPTYVNMTVGSFVCTSCSGSLRGLNPPHRVKSISMTTFTQQEIEFLQKHGNEVCKQIWLGLFDDRSSAIPDFRDPQKVKEFLQEKYEKKRWYVPPEQAKVVASVHASISGSSASSTSSTPEVKPLKSLLGDSAPTLHLNKGTPSQSPVVGRSQGQQQEKKQFDLLSDLGSDIFAAPAPQSTATANFANFAHFNSHAAQNSANADFANFDAFGQSSGSSNFGGFPTASHSPFQPQTTGGSAASVNANFAHFDNFPKSSSADFGTFNTSQSHQTASAVSKVSTNKAGLQTADKYAALANLDNIFSAGQGGDQGSGFGTTGKAPVGSVVSVPSQSSASSDKYAALAELDSVFSSAATSSNAYTSTSNASSNVFGTVPVVASAQTQPASSSVPAPFGATPSTNPFVAAAGPSVASSTNPFQTNARGATAATFGTASMSMPTGFGTPAPYSLPTSFSGSFQQPAFPAQAAFPQQTAFSQQPNGAGFAAFGQTKPVVTPFGQVAAAGVSSNPFMTGAPTGQFPTGSSSTNPFL [AGFG1]”, the “solubility in G1/S (log2)” value in the series with HeLa Kyoto [1] was 0.0305. The thermal stability score in the series with HeLa Kyoto [2] (setting [5]) was 0.14; in the series on HeLa Kyoto [2] (cell cycle stage: mitosis), -0.191. Also, the “solubility change mitosis (log2)” value in the series with HeLa Kyoto [3] was -0.0484. The melting temperature with HeLa Kyoto [4] (cell cycle stage: G1/S) amounted to 50.9 °C; in the series on HeLa Kyoto [4] (cell cycle stage: mitosis) it was 52.1 °C.
In the case of “MLPVYQEVKPNPLQDANLCSRVFFWWLNPLFKIGHKRRLEEDDMYSVLPEDRSQHLGEELQGFWDKEVLRAENDAQKPSLTRAIIKCYWKSYLVLGIFTLIEESAKVIQPIFLGKIINYFENYDPMDSVALNTAYAYATVLTFCTLILAILHHLYFYHVQCAGMRLRVAMCHMIYRKALRLSNMAMGKTTTGQIVNLLSNDVNKFDQVTVFLHFLWAGPLQAIAVTALLWMEIGISCLAGMAVLIILLPLQSCFGKLFSSLRSKTATFTDARIRTMNEVITGIRIIKMYAWEKSFSNLITNLRKKEISKILRSSCLRGMNLASFFSASKIIVFVTFTTYVLLGSVITASRVFVAVTLYGAVRLTVTLFFPSAIERVSEAIVSIRRIQTFLLLDEISQRNRQLPSDGKKMVHVQDFTAFWDKASETPTLQGLSFTVRPGELLAVVGPVGAGKSSLLSAVLGELAPSHGLVSVHGRIAYVSQQPWVFSGTLRSNILFGKKYEKERYEKVIKACALKKDLQLLEDGDLTVIGDRGTTLSGGQKARVNLARAVYQDADIYLLDDPLSAVDAEVSRHLFELCICQILHEKITILVTHQLQYLKAASQILILKDGKMVQKGTYTEFLKSGIDFGSLLKKDNEESEQPPVPGTPTLRNRTFSESSVWSQQSSRPSLKDGALESQDTENVPVTLSEENRSEGKVGFQAYKNYFRAGAHWIVFIFLILLNTAAQVAYVLQDWWLSYWANKQSMLNVTVNGGGNVTEKLDLNWYLGIYSGLTVATVLFGIARSLLVFYVLVNSSQTLHNKMFESILKAPVLFFDRNPIGRILNRFSKDIGHLDDLLPLTFLDFIQTLLQVVGVVSVAVAVIPWIAIPLVPLGIIFIFLRRYFLETSRDVKRLESTTRSPVFSHLSSSLQGLWTIRAYKAEERCQELFDAHQDLHSEAWFLFLTTSRWFAVRLDAICAMFVIIVAFGSLILAKTLDAGQVGLALSYALTLMGMFQWCVRQSAEVENMMISVERVIEYTDLEKEAPWEYQKRPPPAWPHEGVIIFDNVNFMYSPGGPLVLKHLTALIKSQEKVGIVGRTGAGKSSLISALFRLSEPEGKIWIDKILTTEIGLHDLRKKMSIIPQEPVLFTGTMRKNLDPFNEHTDEELWNALQEVQLKETIEDLPGKMDTELAESGSNFSVGQRQLVCLARAILRKNQILIIDEATANVDPRTDELIQKKIREKFAHCTVLTIAHRLNTIIDSDKIMVLDSGRLKEYDEPYVLLQNKESLFYKMVQQLGKAEAAALTETAKQVYFKRNYPHIGHTDHMVTNTSNGQPSTLTIFETAL [ABCC4]”, the “solubility in G1/S (log2)” value in the series with HeLa Kyoto [1] was -0.0872. The thermal stability score was -1.17 with HeLa Kyoto [2] (setting [5]) and -1.43 in the series with HeLa Kyoto [2] (cell cycle stage: mitosis). The “solubility change mitosis (log2)” value in the series on HeLa Kyoto [3] was -0.177. In addition, the results for the melting temperature in the series on HeLa Kyoto [4] (cell cycle stage: G1/S) and in the series on HeLa Kyoto [4] (cell cycle stage: mitosis) were 57.5 °C and 55.8 °C, respectively.
